One may read the Kd as the free concentration of one partner at which half of the binding sites on the other are occupied at equilibrium, for simple one-to-one binding. What is called koff is a measure of how fast the partners let go of each other. As usually defined, the kon is a measure of how fast the partners come together.

Experiment [1] concerns the target T1, recombinant human SOST (rhSOST) (human, UniProt Q9BQB4 24-213).
T1 sequence: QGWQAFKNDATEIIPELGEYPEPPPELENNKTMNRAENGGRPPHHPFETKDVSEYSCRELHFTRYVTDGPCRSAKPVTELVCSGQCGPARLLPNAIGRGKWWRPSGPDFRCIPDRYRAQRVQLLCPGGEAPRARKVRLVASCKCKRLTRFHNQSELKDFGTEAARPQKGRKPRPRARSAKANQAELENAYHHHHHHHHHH
As to the kind of experiment: cell-based or functional assay.

The target in experiment [2] is T1, recombinant human SOST (rhSOST). As to the kind of experiment: SPR Biacore T200, IgG captured via anti-human Fc, rhSOST analyte, 37 C. (In general: SPR reads the build-up and loss of mass on a sensor chip optically.)

Where a chain is given by its changes, count along the chain named.

B1: DP99 (antibody, V domains shown)
VH: EVMLAESGGGLVQPGGSLQLSCAASGFTFSIYAMSWVRQTPEKRLEWVATISGGDTYTYYADSVKGRFTISRDNAKNTLYLHMTGLRSEDTALYYCARHGYDDFDYWGLGTTLTVSS
VL: DVVLTQIPLTLSVTIGQPATISCKSSQSLLDNDGETYLNWLLVRPGQSPKRLIYQVSKLDSGFPERFTGGGSGTDFTLKISRVEAEDLGIYYCWQGTHFPHTFGGGTKLEIK
notes: also called pH99/pL99
In the case of B1, in experiment [1], the “EC50, neutralization of rhSOST-mediated inhibition of Wnt-10B luciferase reporter activity in U-2OS-TF-Wnt10B cells” value was 5.95 ug/ml (printed 'Mg/ml') and the “EC50, restoring WNT10b-stimulated luciferase activity suppressed by 1 ug/ml rhSOST in U2OS TOPFlash cells” value worked out at 37 nM. In addition, in experiment [2], the Kd came out at 0.103 nM, the koff was determined as 0.003 s⁻¹ and the kon came out at 2.9e+07 M⁻¹ s⁻¹.

B2: DM1 (antibody, V domains shown)
VH: EVQLLESGGGLVQPGGSLRLSCAASGHTFSDYWMQWVRQAPGKGLEWVGAIYPGDGDTRYNQKFKDRFTISRDNSKNTLYLQMNSLRAEDTAVYYCARSMDYWGQGTLVTVSS
VL: DIVMTQSPDSLAVSLGERATINCRASKTVDSYGNSFMHWFQQKPGQPPKLLIHHSSNLESGVPDRFSGSGSGTDFTLTISSLQAEDVAVYYCLQTIEHPYTFGQGTKLEIK
notes: also called mH10/mL4
For the molecule B2, in experiment [2], the Kd was 0.566 nM, the koff turned out to be 0.000741 s⁻¹ and the kon was determined as 1.31e+06 M⁻¹ s⁻¹.

B3: DM19 (antibody, V domains shown)
VH: B2 VH with S30T, V48I
VL: B2 VL with H98F, P99H
notes: also called wt/mL10
Take B3: in experiment [2], the Kd stood at 0.096 nM, the koff stood at 0.000388 s⁻¹ and the kon was 4.06e+06 M⁻¹ s⁻¹.

B4: DM2 (antibody, V domains shown)
VH: B2 VH
VL: B2 VL with H53Y
notes: also called mH10/mL14
Turning to B4, in experiment [2], the Kd was 0.321 nM, the koff worked out at 0.000797 s⁻¹ and the kon was 2.48e+06 M⁻¹ s⁻¹.

B5: DM15 (antibody, V domains shown)
VH: B2 VH with S30T, V48I
VL: B2 VL
notes: also called wt/mL4
On to B5, for which, in experiment [2], the Kd was 0.08 nM, the koff worked out at 0.000297 s⁻¹ and the kon turned out to be 3.72e+06 M⁻¹ s⁻¹.

B6: DM11 (antibody, V domains shown)
VH: B2 VH with S30T, V48I
VL: B2 VL with H98D
notes: also called wt/wt
As to B6, in experiment [2], the dissociation constant (Kd) is under 0.0016 nM, the off-rate (koff) was under 2.8e-05 s⁻¹ and the kon came to 1.7e+07 M⁻¹ s⁻¹.

B7: DM14 (antibody, V domains shown)
VH: B2 VH with S30T, V48I
VL: B2 VL with F40Y, H53Y, H98D
notes: also called wt/mL3
Regarding B7, in experiment [2], the Kd amounted to 0.016 nM, the koff was 8.31e-05 s⁻¹ and the kon came out at 5.22e+06 M⁻¹ s⁻¹.

B8: DM33 (antibody, V domains shown)
VH: B2 VH with H27F
VL: B2 VL with F40Y, H53Y
notes: also called mH11/mL15
Consider B8, for which, in experiment [2], the Kd was 0.093 nM, the off-rate constant (koff) was determined as 0.000563 s⁻¹ and the kon was found to be 6.03e+06 M⁻¹ s⁻¹.

B9: DM12 (antibody, V domains shown)
VH: B2 VH with S30T, V48I
VL: B2 VL with F40Y, H98D
notes: also called wt/mL1
On to B9, for which, in experiment [2], the Kd was determined as 0.009 nM, the koff turned out to be 5.62e-05 s⁻¹ and the kon was 6.55e+06 M⁻¹ s⁻¹.

B10: DM23 (antibody, V domains shown)
VH: B2 VH with H27F, V48I
VL: B2 VL with H98D
notes: also called mH3/wt
Regarding B10, in experiment [2], the equilibrium dissociation constant (Kd) worked out at 0.01 nM, the koff was determined as 0.000134 s⁻¹ and the kon worked out at 1.39e+07 M⁻¹ s⁻¹.

B11: DM30 (antibody, V domains shown)
VH: B2 VH
VL: B2 VL with F40Y, H53Y, H98D
notes: also called mH10/mL3
In the case of B11, in experiment [2], the Kd came to 0.045 nM, the koff is 0.000239 s⁻¹ and the kon was found to be 5.34e+06 M⁻¹ s⁻¹.

B12: DM5 (antibody, V domains shown)
VH: B2 VH
VL: B2 VL with H53Y, H98F
notes: also called mH10/mL16
Consider B12, for which, in experiment [2], the Kd stood at 0.193 nM, the off-rate constant (koff) is 0.000754 s⁻¹ and the kon turned out to be 3.91e+06 M⁻¹ s⁻¹.

B13: DM7 (antibody, V domains shown)
VH: B2 VH with H27F
VL: B2 VL with H53Y
notes: also called mH11/mL14
B13: in experiment [2], the Kd was 0.966 nM, the koff came to 0.00402 s⁻¹ and the on-rate constant (kon) turned out to be 4.16e+06 M⁻¹ s⁻¹.

B14: DM3 (antibody, V domains shown)
VH: B2 VH
VL: B2 VL with F40Y, H53Y
notes: also called mH10/mL15
B14: in experiment [2], the Kd came out at 1.84 nM, the koff was 0.00285 s⁻¹ and the association rate constant (kon) was 1.55e+06 M⁻¹ s⁻¹.

B15: DM17 (antibody, V domains shown)
VH: B2 VH with S30T, V48I
VL: B2 VL with H98D, P99S
notes: also called wt/mL6
As for B15, in experiment [2], the equilibrium dissociation constant (Kd) was determined as 0.044 nM, the koff is 0.000207 s⁻¹ and the kon was determined as 4.7e+06 M⁻¹ s⁻¹.

B16: DM25 (antibody, V domains shown)
VH: B2 VH with S30T
VL: B2 VL with H98D
notes: also called mH4/wt
Turning to B16, in experiment [2], the Kd stood at 0.017 nM, the koff amounted to 0.000101 s⁻¹ and the kon came to 5.81e+06 M⁻¹ s⁻¹.

B17: DM31 (antibody, V domains shown)
VH: B2 VH
VL: B2 VL with F40Y, H53Y, H98D, P99S
notes: also called mH10/mL19
Take B17: in experiment [2], the Kd came to 0.816 nM, the off-rate (koff) came out at 0.00171 s⁻¹ and the association rate constant (kon) amounted to 2.1e+06 M⁻¹ s⁻¹.

B18: DM16 (antibody, V domains shown)
VH: B2 VH with S30T, V48I
VL: B2 VL with H98D, P99H
notes: also called wt/mL5
Consider B18, for which, in experiment [2], the Kd worked out at 0.207 nM, the dissociation rate constant (koff) was 0.000817 s⁻¹ and the kon came out at 3.94e+06 M⁻¹ s⁻¹.

B19: DM18 (antibody, V domains shown)
VH: B2 VH with S30T, V48I
VL: B2 VL with E97D, H98E
notes: also called wt/mL8
Turning to B19, in experiment [2], the Kd is 0.179 nM, the koff stood at 0.00104 s⁻¹ and the kon worked out at 5.81e+06 M⁻¹ s⁻¹.

B20: DM32 (antibody, V domains shown)
VH: B2 VH with H27F
VL: B2 VL with H53Y, H98D
notes: also called mH11/mL2
For the molecule B20, in experiment [2], the equilibrium dissociation constant (Kd) was 0.054 nM, the koff is 0.000419 s⁻¹ and the kon is 7.75e+06 M⁻¹ s⁻¹.

B21: DM9 (antibody, V domains shown)
VH: B2 VH
VL: B2 VL with N34S, S35N, F40Y, H53Y
notes: also called mH10/mL18
Regarding B21, in experiment [2], the Kd was determined as 2.32 nM, the koff stood at 0.00434 s⁻¹ and the kon came out at 1.87e+06 M⁻¹ s⁻¹.

B22: DM24 (antibody, V domains shown)
VH: B2 VH with H27F, V48I
VL: B2 VL with H53Y, H98D
notes: also called mH3/mL2
Turning to B22, in experiment [2], the Kd worked out at 0.035 nM, the off-rate (koff) was found to be 0.000239 s⁻¹ and the on-rate constant (kon) is 6.9e+06 M⁻¹ s⁻¹.

B23: DM13 (antibody, V domains shown)
VH: B2 VH with S30T, V48I
VL: B2 VL with H53Y, H98D
notes: also called wt/mL2
For B23, in experiment [2], the Kd was under 0.0016 nM, the off-rate (koff) was under 2.8e-05 s⁻¹ and the kon worked out at 1.72e+07 M⁻¹ s⁻¹.

B24: DM8 (antibody, V domains shown)
VH: B2 VH with H27F
VL: B2 VL with F40Y, H53Y, H98F
notes: also called mH11/mL17
Take B24: in experiment [2], the Kd was 2.93 nM, the koff amounted to 0.007 s⁻¹ and the kon was determined as 2.39e+06 M⁻¹ s⁻¹.

B25: DM29 (antibody, V domains shown)
VH: B2 VH
VL: B2 VL with H53Y, H98D
notes: also called mH10/mL2
For the molecule B25, in experiment [2], the equilibrium dissociation constant (Kd) is 0.014 nM, the koff was found to be 0.000101 s⁻¹ and the kon was 7.41e+06 M⁻¹ s⁻¹.

B26: DM28 (antibody, V domains shown)
VH: B2 VH with S30T, V48I, N61A, K63S, F64V, D66G
VL: B2 VL with H98D
notes: also called mH8/wt
For B26, in experiment [2], the Kd was 0.099 nM, the koff stood at 0.00035 s⁻¹ and the kon came out at 3.52e+06 M⁻¹ s⁻¹.

B27: DM20 (antibody, V domains shown)
VH: B2 VH with V48I
VL: B2 VL with H98D
notes: also called mH1/wt
For the molecule B27, in experiment [2], the Kd stood at 0.015 nM, the koff was 0.00012 s⁻¹ and the kon was 7.83e+06 M⁻¹ s⁻¹.

B28: DM26 (antibody, V domains shown)
VH: B2 VH with S30T, V48I, G49S
VL: B2 VL with H98D
notes: also called mH5/wt
As to B28, in experiment [2], the Kd worked out at 0.053 nM, the koff is 0.000222 s⁻¹ and the on-rate constant (kon) worked out at 4.2e+06 M⁻¹ s⁻¹.

B29: DM34 (antibody, V domains shown)
VH: B2 VH with H27F
VL: B2 VL with F40Y, H53Y, H98D, P99S
notes: also called mH11/mL19
With B29, in experiment [2], the Kd turned out to be 1.65 nM, the koff stood at 0.00356 s⁻¹ and the kon came out at 2.16e+06 M⁻¹ s⁻¹.

B30: DM22 (antibody, V domains shown)
VH: B2 VH with H27F, S30T, V48I
VL: B2 VL with H98D
notes: also called mH2/wt
As for B30, in experiment [2], the Kd turned out to be 0.015 nM, the koff is 0.000152 s⁻¹ and the kon turned out to be 1.04e+07 M⁻¹ s⁻¹.

B31: DM6 (antibody, V domains shown)
VH: B2 VH
VL: B2 VL with F40Y, H53Y, H98F
notes: also called mH10/mL17
As to B31, in experiment [2], the Kd was determined as 1.18 nM, the koff was found to be 0.00251 s⁻¹ and the kon is 2.12e+06 M⁻¹ s⁻¹.

The values are drawn from patent WO2015087187A1 (dated 2015).
